Experiment: soluble on expression in E. coli; label from the status in PepcDB or PDB records

Sequence	soluble on expression in E. coli
MSSGVPVLHWNFGIGPITCHAWNKDRTQIAVSASSNDIHIFEWRNGDWQSIHTLSEHDLPVTGLDWGTKTNRIVSCSQDKNAFVWTFDKNVWKPELVLVRFNRAATYVKWSPLENKFAVGSGAKLVSVCYYEKENDWWVSKQIKKPIRSTVTCLDWHSNNVLLAVGSCDFKCRVFSAYVKEVDEKPSPNPWGQKMPFGQLMSEYSVGGWVHRVAFSPSGCRLAFVSHDSSVSFVDSTVDSQKVQNLLTIHLPFTTVEWITENSVVTAGHDCSPVLFVVSQDVLKEVCKLDVPSAAKSSTVNSALQLFKNIDRNNAAEKINVALKTLHQNRITQILPHSGTVGNVVKFTTCGTDGIVALWDLKNHPSLV	not soluble
MKQKRLTFLLLLISNLFCASAQKWYKPEIDLKVEELLSQMTVEEKLGYIGGIDWMYTKSIDRLGIHRMRMSDGPQGIGTKGKSTAYPATVTLAATWNENLAYQYGKALGRDCRARNINVILGPAVNIYRAPMCGRNFEYMGEDPYLTSRICVGYIKGVQDQGVMATVKHFVANNSDYDRNNISNDIDERTLNEIYFPAYKAAIQEAEVGAIMTSYNLMNGIYTTENPWLLKEVLRNQWGFKGLVMSDWGSTHYCVPAARSGLDLEMAGGEKMNPKDMAYYLKTGDVTMDMVDEKVRHILRILIAFGFKDGTEADKSIALDDPQSVETA	not soluble
MAHHHHHHMDPLLLGTSAGLERNCTVLFSHLTALCGTKPAGEPHNPLQVHLRVDDGHRDTALQHIKVLYDVAVRHNPRTSVTVVPLAPLEYYETPNRNTNSREGHKLPLFTASLMTPNCGFNPVYKGVAVGGTFDRLHGGHKLLLTTALLHATQVLRIGVTVSTMLTTKIHADLIEPFEVRCAAVTKFAHLLRPDLGLEVAGIADRAGGADSDPSLEALVVSPETVGALPSINTARLSVGLKPLECVLVPYVGVCDDEESRVSSTNIRKRLCELST	soluble
SHMLEDPCTSKKVRAARTLLAKNLSFNITEDELKEVFEDALEIRLVSQDGKSKGIAYIEFKSEADAEKNLEEKQGAEIDGRSVSLYYTGEKGGTRG	soluble
GMGSYQLLVPPPEALSKPLSVPTRLLLGPGPSNLAPRVLAAGSLRMIGHMQKEMLQIMEEIKQGIQYVFQTRNPLTLVVSGSGHCAMETALFNLLEPGDSFLTGTNGIWGMRAAEIADRIGARVHQMIKKPGEHYTLQEVEEGLAQHKPVLLFLVHGESSTGVVQPLDGFGELCHRYQCLLLVDSVASLGGVPIYMDQQGIDIMYSSSQKVLNAPPGISLISFNDKAKYKVYSRKTKPVSFYTDITYLAKLWGCEGETRVIHHTTPVTSLYCLRESLALIAEQGLENCWRRHREATAHLHKHLQEMGLKFFVKDPEIRLPTITTVTVPAGYNWRDIVSYVLDHFSIEISGGLGPTEERVLRIGLLGYNATTENVDRVAEALREALQHCPKNKL	soluble
VLDDEEKIVDLSSSIEKFLDFAPGSLAGVALSEILHPEDYLHFKTALDRQKPHEAVLMFYSRFKTGDGSWLNVEWSLSIKRKPMTDQYEYTIILRKTDNPLF	not soluble
MKLTLAIPSLNLDEDEIRIPLCLHAFNKILQYGSLHRQSCTASAFYARYLWCGRLVERAAQSLNMPSEAVALATPVWQKMGMHQANVLTAEYLNVGTDEAERICRDLSAFYGDIPWRFVPVLPELWLVSLPCAYRWGAKPVLDLGGLLGADDQPDGEDALEWLRVQTEIQMWLAAHPVNHNRKKRGLPELNGLWLWDGTNGGAQGGTLFADTVWSRFHSDRRALPDNFRAYEETAAHLPDTHHILFMDDLRLTALTGDRERYAAILQQWEERWFAPIYEAVRTGKIKRLDITTDGQHGGTLTFKPADRWKFWRGAKTFDGIW	not soluble
MGSDKIHHHHHHMTQSHDEPMQTMMWGGNAAFIEGLYESYLQDPSSVGAEWRSYFDGLRGGAQERVHSEVQQRFYELGQHRGPVTVQVTGGASGAQQAAGALVTAYRVYGHISARNNPLKLRGVPTVPELTPEFYGLSEADLSEQVQDSPFSGTLRDVIAQLQDTYCGAIGFEYNYLPANERAWFQERIEKGRGQGRYGLSQDERRRLMQKLNAAEGLELYLKNRYPGVKRFGLEGGESFIPLMDRIIQQAGGRYGVKEVVVGMAHRGRLNTLVNIFGKPSGTLFDEFDGKKKLSDDPDIAGDVKYHMGYSSDVRTPGGPMHLAMAFNPSHLEIVSPVVHGSVRARQDRRGDTERKQVLPITVHGDAAVSGQGVVMETLNFSRLRGFTTGGAIRIVINNQIGFTISDPRDSRSSRYCTDVAKIANAPVMHVNGDDPEAVAFCGDLALAYRQEFGKDVFIDLICFRRNGHNEGDEPRMTQPVMYREIDQHPGTRALYAAQLEKDGVLAAGEGDKLVNDFRDRLDRGETVVEEMENAEQSKLAVDWSGYTNTHWKDDEVATAVPREKLEALGLKLTQVPEGFRVHRTVERTVIKAREAMARGEQPLDWGMGEMLAYASLLDEGFGLRLDGQDSGRGTFVHRHAVLHNQDAVDPLSEEYMALAHLSPEQGRVEVIDSTLSEEAVLAFEYGYSTSEPKALVAWEAQFGDFANGAQAVVDQFLSAGESKWQRLSGLTMLLPHGYEGAGPEHSSARLERYLQLCAQKNMQVVVPSSAAQIFHLLRRQVLRPYRKPLIVMTPKSLLRNKHAMSPLSDLYDGVFHEVIGDAEVQNARRVVLSSGKLHWELTEAREKDKEGYAGTALVRLEQLYPFPAEQVKAELAKHPGAQVVWAQEEPENQGAWLMIWEDLEHCLQPGQTLTHASRPRSASTAVGYTSVHVREQAKVIADALGEPITRQDVDAQVPLTEEASAQG	not soluble
MGSDKIHHHHHHMAKILVVTDGAYGYRIKGTINSFGKKNKFIGIYKINKPDDLIVDDIEFPDELLEKIKEADILLLYTQHPDNTYYLCYEARRLNKDIAIIVATWSGEGEKKELKKFDAICPEEMCLLDENEVGSLIDKYPKLKEFLEEFGTPKVKVYVKDNKVIDVEVLRTSICGSTLFMAKLMKGMEVNDIEEFAKKSAMLIQRYPCVAGKIKIFRGDCRKQKALNIHKEAVLEGIIFI	not soluble
MSLADTYRPEISVAGFIPLPDCGRQVYNFNPGWRFFKGDIRGAEAVNFDDRSWEVVSTPHTVELMPAEGSGCRNYQGPAWYRKHFVVPTATKGQRVLLHFEAAMGKQVLYLNGKRVQEHLGGYLPFTLDLTANGVQAGDSCLLAVYTDNSNDKSYPPGKPQYTLDFAYHGGIYRDVWMIAKSPVAITDAIDSRTVGGGGVFVHFDKISEKSAQVYVETEIQNDNTRSESVTIETTLTDAEGNVIKRTSGKLSLNSGEKKSIRQQMEVRNPKLWSPDAPYLYRVQSRIKKGNRSIDGGTTRIGIRLAEFRGKEGFWLNGKPFGQLVGANRHQDFAYVGNALPNSQQWRDAKRLRDAGCTIIRVAHYPQDPSFMDACDELGLFVIVATPGWQYWNKDPKFGELVHQNTREMIRRDRNHPSVLMWEPILNETRYPLDFALKALEITKEEYPYPGRPIAAADVHSAGVKEHYDVVYGWPGDDEKEDKPEQCIFTREFGENVDDWYAHNNNNRASRSWGERPLLIQALSLAKSYDEMYRTTGQFIGGTQWHPFDHQRGYHPDPYWGGIYDAFRQKKYAYEMFRSQSPASLQHPLAECGPMIFLAHEMSQFSDKDVVVFSNCDSIRLSIYDGTKTWTKPVVHAKGHMPNAPVIFENVWDFWEARGYSYTQKNWQKVNMVAEGIIDGKVVCTQKKMPSRRSTKLRLYADTQKVNLVADGSDFIVVVAEVTDDSGNVRRLAKENIVFTVEGEGEIIGDARIGANPRAVEFGSAPLLIRSTRKAGKIKVKAHVQFEGTQAPTAAEMEFESVPAELPFCYDEKEGHHHHHH	soluble
MGSDKIHHHHHHMKKQPLAYRMRPSNIDEVIGQQHLVGEGKIIRRMVDAGQLSSMILYGPPGVGKTSIAQAIAGSTDTHYKLLNAVVNNKKDMEIVVEEAKMSGQLILILDEVHRLDKGKQDFLLPHLEKGLLILIGATTANPFHSINPAIRSRCQIFELTPLTTDEIKVALTRALTDKTHGLGEEPVVISDEALAHFAFACGGDVRSALNGLELAVRSTQPNVKGEKEITLSVAEECIQRKSFHHDKDGDAHYDVLSAFQKSIRGSDVNAALHYLARLIEAGDLVSIGRRLLVIAYEDIGLANPQAGPRTLAAIEAAERLGFPEGRIPLANAVVELCLSPKSNSAYVALDAAIADIRKGHVGSVPAHLKDAHYKGAEQLGRGIGYKYPHDYERGWVKQQYLPDSLKSRAYYEPKRTGKFEDALADVYEKLRKSTFSKES	not soluble
MKFLSFIFLVSLCAVTSQINAQAPELPLDKIKLPPGFSISVWANVPDARTMTLGDKGTVFVGSKSAGNVYAITENAGKRQIRIIASKLKMPNGVAFHDGALYVSSVNRILRFDNIENTLDQPLPPRIITADYPKETYHGWRFIAFGPDGWLYVPVGSSCNVCETDLEHYALISRIRPDGSNYEVFAKGVRNTEGFDWHPVTKALWFTDISREWMGDNLPPDELNHASNQGLDFGFPYCHGKEVSDPKLGAKRDCNKFIPPAVELDPHVAPMGMRFYTGTMFPAEYHNGIFIAEHGSWNRSTKIGYRLEWVQLEVNEVARKEIFAEGWLQENEAWGRPVDVLVMPDGALLVSDDMAGVVYRISYDQP	not soluble
MIAVVIPAHNEARRLGRCLRAVLVAARQAQQAGLHVEVLVVLDRCSDGSAAVARRFGVHTLEVDAGNVGMARRVGAAHMVERGATWLACTDADSRVPAHWLLSQLACSAEVVCGTVHVEYWQPWQTAALRKLYQSRYQACEGHRHVHGANLGVCADAYERVGGFQPLAAHEDVQLVSDLQASGAQIVWTARHSVATSSRRDSRAREGFGDYLAGLQAQSLEHHHHHH	not soluble
MECPKEIVLLMHSYFDGDLQPEGEQQLKEHLRSCAACAAHFHELKKTVAFLQYAAHVAAPPSFAAKVMEAMPKERKTARLRRFMHRHPLLTAASLFLALTLGSLASSWGERGAFSVSADEHVIIRDHTVIVPKGETVKGDIVVRNGSIRIEGTVDGDVTVIHGKKYMASAGQVTGEVEEINQVFEWIWYNIKERFNRALQSIE	not soluble
MSKMLYRVELIITNKEGVRDPEGETIQRYVVSRFSDKIIETRAGKYLVFRVNSSSQQEATELVKKLADEMRLYNPIVHKIEIRANRIEDSSN	soluble
MKSYAILNQNNLFLSLEELKAIIDSDEVEYYHGVALFNKEPNNVAKRSSLIKYSGRVIAISHDVNEIVKNIKGECFSVDPTVITKEYKSEFLSIYDRIINNIKVSKKCKKMDLIFTEGLIIAGLRVEEKDNESLFKHSKKPYSQSGTLSPDIGRLMVNLSKSRKTILDPFVGTGTILIEAKWLGLNCIGLDVDSKMIEKSLVNLRYFGYECDILRGDATSLPFNNIEAIVTDPPYGRSVSVREGINNLYEGFFYSASNITRTLVFTTDSKLDWRDKLKEVGFNDISIHFIYEHKSLSRAIYVVRKK	soluble
MGSDKIHHHHHHMKKLVFDYEMKLSFSSPVTDHRFQLRCIPATGPRQQVIDVAVKIEPDVELETTIDSFDSVVMTGFIPEPHTMFNYSVTGIAFVDNAHIKSEIYKPLYRFNSALTVPGPAIEALIGICHERIVSLPADCTPIDQAREVMDEVFKTFVYTPASTTIRTTAEEAFAQRKGVCQDYAHVMLSVCRHVGLTARYIAGLLGGEGATHAWVEIYHDGRWVGLDPTHNRMVDDNYITIAHGRDYRDCMLDIGIFSGCDVKQDQWVNASVHEQGY	not soluble

Source: the DeepSol protein solubility set
